From patent US20130345129A1 (OTSUKA CHEMICAL, published 2013)
No end group written: not given here. asialo oligosaccharide = asialo (digalactose) oligosaccharide chain

T1: mouse GLP-1 receptor (mouse, UniProt O35659 22-463)
T1 sequence (looked up): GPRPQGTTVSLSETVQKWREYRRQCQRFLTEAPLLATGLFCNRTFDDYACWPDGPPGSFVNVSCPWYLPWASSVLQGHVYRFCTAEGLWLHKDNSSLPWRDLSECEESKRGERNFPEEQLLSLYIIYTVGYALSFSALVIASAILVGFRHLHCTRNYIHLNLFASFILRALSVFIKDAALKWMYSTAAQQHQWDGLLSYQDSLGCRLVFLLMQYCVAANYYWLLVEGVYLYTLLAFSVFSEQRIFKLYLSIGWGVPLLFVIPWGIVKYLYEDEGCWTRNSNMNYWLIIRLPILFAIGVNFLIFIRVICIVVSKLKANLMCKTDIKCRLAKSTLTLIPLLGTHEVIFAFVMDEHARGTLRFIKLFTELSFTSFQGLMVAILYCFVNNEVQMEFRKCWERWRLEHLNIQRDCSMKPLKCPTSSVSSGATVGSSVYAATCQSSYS

B1: 6Cys GLP-1-disialo (peptide)
peptide: CHAEGTFTSDVSSYLEGQAAKEFIAWLVKGRG
modifications: disialo oligosaccharide chain added Cys at position 6 (added before 7His; chain attached to Cys with bromoacetamidyl disialo oligosaccharide)

molecular target: T1, mouse GLP-1 receptor; experiment: cell-based or functional assay

Row | Relative Activity (cAMP synthesis, EC50 relative to GLP-1 = 1) | Binder
1 | 2.2 relative (GLP-1 = 1) | HAEGTFTSDVSSYLEGQAAKEFIAWLVC(asialo oligosaccharide)GRG [34Cys GLP-1-asialo]
2 | 0.7 relative (GLP-1 = 1) | HAEGTFTSDVSSYLEGQAAKEFIAWLVC(disialo oligosaccharide)GRG [34Cys GLP-1-disialo]
3 | 0.2 relative (GLP-1 = 1) | HAEGTFTSDVSSYLEGQAAKC(disialo oligosaccharide)FIAWLVKGRG [27Cys GLP-1-disialo]
4 | < 0.1 relative (GLP-1 = 1) | HAEC(disialo oligosaccharide)TFTSDVSSYLEGQAAKEFIAWLVKGRG [10Cys GLP-1-disialo]
5 | < 0.1 relative (GLP-1 = 1) | HAEGTFTSDVSSYLEGQC(disialo oligosaccharide)AKEFIAWLVKGRG [24Cys GLP-1-disialo]
6 | < 0.1 relative (GLP-1 = 1) | HC(disialo oligosaccharide)EGTFTSDVSSYLEGQAAKEFIAWLVKGRG [8Cys GLP-1-disialo]
7 | 0.6 relative (GLP-1 = 1) | HAEGTFTSDVSSYLEGQAAKEFIC(disialo oligosaccharide)WLVKGRG [30Cys GLP-1-disialo]
8 | 1 relative (GLP-1 = 1) | HAEGTFTSDVSSYLEC(disialo oligosaccharide)QAAKEFIAWLVKGRG [22Cys GLP-1-disialo]
9 | 0.8 relative (GLP-1 = 1) | HAEGTFTSDVSSYLEGQAAC(asialo oligosaccharide)EFIAWLVKGRG [26Cys GLP-1-asialo]
10 | < 0.1 relative (GLP-1 = 1) | HAEGTFTC(disialo oligosaccharide)DVSSYLEGQAAKEFIAWLVKGRG [14Cys GLP-1-disialo]
11 | 0.2 relative (GLP-1 = 1) | HAEGTFTSDVSSYLEGQAAC(disialo oligosaccharide)EFIAWLVKGRG [26Cys GLP-1-disialo]
12 | < 0.1 relative (GLP-1 = 1) | B1
13 | < 0.1 relative (GLP-1 = 1) | HAEGC(disialo oligosaccharide)FTSDVSSYLEGQAAKEFIAWLVKGRG [11Cys GLP-1-disialo]
14 | 1.9 relative (GLP-1 = 1) | HAEGTFTSDVSSYLEGQAAKEFIAWLVKGRGC (disialo oligosaccharide chain added Cys at position 38 (added after 37Gly)) [38Cys GLP-1-disialo]
15 | < 0.1 relative (GLP-1 = 1) | HAEGTFTSDVSSYLEGQAAKEC(disialo oligosaccharide)IAWLVKGRG [28Cys GLP-1-disialo]
16 | < 0.1 relative (GLP-1 = 1) | HAEGTFTSDVSSYC(disialo oligosaccharide)EGQAAKEFIAWLVKGRG [20Cys GLP-1-disialo]
17 | < 0.1 relative (GLP-1 = 1) | HAEGTFTSDC(disialo oligosaccharide)SSYLEGQAAKEFIAWLVKGRG [16Cys GLP-1-disialo]
18 | 1.9 relative (GLP-1 = 1) | HAEGTFTSDVSSYLEGQAAKEFIAWLVKGC(disialo oligosaccharide)G [36Cys GLP-1-disialo]
19 | < 0.1 relative (GLP-1 = 1) | HAEGTFTSDVSSYLEGQAC(disialo oligosaccharide)KEFIAWLVKGRG [25Cys GLP-1-disialo]
20 | < 0.1 relative (GLP-1 = 1) | HAC(disialo oligosaccharide)GTFTSDVSSYLEGQAAKEFIAWLVKGRG [9Cys GLP-1-disialo]
21 | < 0.1 relative (GLP-1 = 1) | HAEGTC(disialo oligosaccharide)TSDVSSYLEGQAAKEFIAWLVKGRG [12Cys GLP-1-disialo]
22 | < 0.1 relative (GLP-1 = 1) | HAEGTFTSDVSSYLEGQAAKEFIAWC(disialo oligosaccharide)VKGRG [32Cys GLP-1-disialo]
23 | < 0.1 relative (GLP-1 = 1) | HAEGTFTSDVSC(disialo oligosaccharide)YLEGQAAKEFIAWLVKGRG [18Cys GLP-1-disialo]
